Assay results reported in PMC9467508, “DNA passes through cohesin’s hinge as well as its Smc3–kleisin interface” (eLife, 2022).
Positions count from the first letter of the chain named.

Legend:
Assay in all cases: cross-linking; BMOE (0.64 mM) cross-linking of engineered cysteine pairs; 0.7 uM cohesin (Smc1, Smc3, and Scc1) and Scc2 in 25 mM HEPES pH 7.5, 50 mM NaCl, 1 mM MgCl2, 1 mM TCEP, 5% glycerol; 24°C, 5 min; with or without 10 mM ATP and 60 nM supercoiled pUC19; SDS-PAGE
Conditions in all cases: both partners purified
[1] = target: T1, cohesin (Smc1-His E1102C, Smc3, Scc1-StrepII) (S. cerevisiae, UniProt P32908 1-1225; P47037 1-1230; Q12158 1-566, E1102C)
T1 construct: Smc1, cohesin subunit, S. cerevisiae; Smc3, cohesin subunit, S. cerevisiae; Scc1 (kleisin subunit of cohesin), S. cerevisiae; Tied to the cross-linking experiment by its substitution; also called Smc1E1102C; cohesin (Smc1, Smc3, and Scc1); source: prepared as described in Collier et al., 2020 (pACEbac1i plasmid); purified; copies: + +
T1 sequence (P32908 whole entry E1102C, chain 1 of 3): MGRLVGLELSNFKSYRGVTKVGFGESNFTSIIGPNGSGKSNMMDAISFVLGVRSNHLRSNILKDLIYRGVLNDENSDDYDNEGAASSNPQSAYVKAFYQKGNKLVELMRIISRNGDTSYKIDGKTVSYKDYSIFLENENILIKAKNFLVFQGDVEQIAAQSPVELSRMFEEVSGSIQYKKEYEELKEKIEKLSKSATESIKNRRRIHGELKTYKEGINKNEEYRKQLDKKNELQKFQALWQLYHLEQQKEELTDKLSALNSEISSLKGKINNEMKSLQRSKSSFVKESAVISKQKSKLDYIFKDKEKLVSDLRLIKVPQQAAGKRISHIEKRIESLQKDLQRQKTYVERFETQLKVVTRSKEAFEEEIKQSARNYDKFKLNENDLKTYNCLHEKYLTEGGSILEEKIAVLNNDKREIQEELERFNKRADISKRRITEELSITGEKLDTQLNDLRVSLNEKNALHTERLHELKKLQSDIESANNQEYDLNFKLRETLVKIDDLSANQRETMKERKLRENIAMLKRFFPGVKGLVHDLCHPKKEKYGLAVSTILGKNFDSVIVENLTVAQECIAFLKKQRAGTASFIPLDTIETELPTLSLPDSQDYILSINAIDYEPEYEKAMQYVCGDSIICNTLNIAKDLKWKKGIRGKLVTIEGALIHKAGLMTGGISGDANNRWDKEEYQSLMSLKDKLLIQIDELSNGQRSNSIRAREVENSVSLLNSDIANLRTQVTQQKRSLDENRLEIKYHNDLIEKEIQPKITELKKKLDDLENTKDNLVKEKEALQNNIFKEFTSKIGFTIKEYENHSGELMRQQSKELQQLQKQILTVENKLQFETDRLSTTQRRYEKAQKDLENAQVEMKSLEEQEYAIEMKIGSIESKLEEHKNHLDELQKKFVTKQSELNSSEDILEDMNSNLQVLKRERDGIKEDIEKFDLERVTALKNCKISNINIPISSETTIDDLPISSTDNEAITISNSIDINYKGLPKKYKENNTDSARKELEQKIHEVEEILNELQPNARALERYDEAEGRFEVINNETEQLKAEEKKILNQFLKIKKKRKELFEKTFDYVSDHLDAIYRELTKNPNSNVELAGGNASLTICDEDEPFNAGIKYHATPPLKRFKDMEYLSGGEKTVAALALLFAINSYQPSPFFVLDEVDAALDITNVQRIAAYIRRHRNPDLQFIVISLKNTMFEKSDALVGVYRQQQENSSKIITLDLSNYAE
T1 sequence (P47037 whole entry, chain 2 of 3): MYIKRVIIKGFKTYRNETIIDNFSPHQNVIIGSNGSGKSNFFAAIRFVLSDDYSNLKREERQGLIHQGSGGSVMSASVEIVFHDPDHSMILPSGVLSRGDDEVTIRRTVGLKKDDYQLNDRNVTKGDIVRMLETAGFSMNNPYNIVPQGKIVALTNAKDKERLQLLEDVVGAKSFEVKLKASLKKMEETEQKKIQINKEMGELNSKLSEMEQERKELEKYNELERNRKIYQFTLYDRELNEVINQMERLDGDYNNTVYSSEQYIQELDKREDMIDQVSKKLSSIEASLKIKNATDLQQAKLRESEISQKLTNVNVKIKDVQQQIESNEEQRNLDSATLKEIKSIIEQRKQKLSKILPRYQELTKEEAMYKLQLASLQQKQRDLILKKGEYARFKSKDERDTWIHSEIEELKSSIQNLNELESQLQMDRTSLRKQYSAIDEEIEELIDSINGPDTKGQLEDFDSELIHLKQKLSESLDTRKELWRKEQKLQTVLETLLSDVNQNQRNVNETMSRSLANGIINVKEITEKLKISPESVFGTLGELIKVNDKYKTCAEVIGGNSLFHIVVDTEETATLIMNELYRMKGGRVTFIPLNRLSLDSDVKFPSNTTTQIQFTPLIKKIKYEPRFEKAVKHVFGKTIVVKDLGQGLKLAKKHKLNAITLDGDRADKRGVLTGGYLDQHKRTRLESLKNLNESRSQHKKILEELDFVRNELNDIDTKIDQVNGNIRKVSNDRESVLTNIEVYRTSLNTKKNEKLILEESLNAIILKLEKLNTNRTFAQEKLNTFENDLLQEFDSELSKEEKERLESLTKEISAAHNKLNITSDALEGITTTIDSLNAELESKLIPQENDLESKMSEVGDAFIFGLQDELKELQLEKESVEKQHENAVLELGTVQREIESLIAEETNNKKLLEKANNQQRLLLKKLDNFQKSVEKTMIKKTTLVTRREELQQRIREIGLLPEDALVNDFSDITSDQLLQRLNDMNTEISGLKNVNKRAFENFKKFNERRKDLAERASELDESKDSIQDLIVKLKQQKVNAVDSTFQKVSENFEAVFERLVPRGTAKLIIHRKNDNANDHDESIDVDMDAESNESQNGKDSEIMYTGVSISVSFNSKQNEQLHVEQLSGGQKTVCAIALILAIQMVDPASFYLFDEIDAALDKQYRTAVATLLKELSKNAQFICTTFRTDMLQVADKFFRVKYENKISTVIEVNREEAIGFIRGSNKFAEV
T1 sequence (Q12158 whole entry, chain 3 of 3): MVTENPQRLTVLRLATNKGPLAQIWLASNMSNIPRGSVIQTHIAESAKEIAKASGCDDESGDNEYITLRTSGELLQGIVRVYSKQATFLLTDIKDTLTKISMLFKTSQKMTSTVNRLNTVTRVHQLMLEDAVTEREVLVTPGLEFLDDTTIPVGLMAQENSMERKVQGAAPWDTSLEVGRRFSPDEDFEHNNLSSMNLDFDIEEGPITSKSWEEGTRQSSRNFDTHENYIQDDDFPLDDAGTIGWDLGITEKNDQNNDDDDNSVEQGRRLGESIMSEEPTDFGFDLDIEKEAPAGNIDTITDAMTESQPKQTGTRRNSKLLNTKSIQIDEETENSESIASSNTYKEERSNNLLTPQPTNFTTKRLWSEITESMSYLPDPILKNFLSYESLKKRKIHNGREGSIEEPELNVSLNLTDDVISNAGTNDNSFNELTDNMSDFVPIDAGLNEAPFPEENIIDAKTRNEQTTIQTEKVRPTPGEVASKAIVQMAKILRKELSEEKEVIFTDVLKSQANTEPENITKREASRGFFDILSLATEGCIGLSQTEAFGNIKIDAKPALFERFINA

[2] = target: T2, cohesin (Smc3 K1004C, Smc1, Scc1-StrepII) (S. cerevisiae, UniProt P32908 1-1225; P47037 1-1230; Q12158 1-566, K1004C)
T2 construct: Smc1, cohesin subunit, S. cerevisiae; Smc3, cohesin subunit, S. cerevisiae; Scc1 (kleisin subunit of cohesin), S. cerevisiae; Tied to the cross-linking experiment by its substitution; also called cohesin (Smc1, Smc3, and Scc1); source: prepared as described in Collier et al., 2020 (pACEbac1i plasmid); purified; copies: + +
T2 sequence (P32908 whole entry, stated change not applied, chain 1 of 3): as the sequence (P32908 whole entry E1102C, chain 1 of 3) above, with C1102E counted along it
T2 sequence (P47037 whole entry K1004C, chain 2 of 3): as the sequence (P47037 whole entry, chain 2 of 3) above, with K1004C counted along it
T2 sequence (Q12158 whole entry, chain 3 of 3): as the sequence (Q12158 whole entry, chain 3 of 3) above

[3] = target: T3, cohesin (Smc1, Smc3 S72C, Scc1-StrepII) (S. cerevisiae, UniProt P32908 1-1225; P47037 1-1230; Q12158 1-566, S72C)
T3 construct: Smc1, cohesin subunit, S. cerevisiae; Smc3, cohesin subunit, S. cerevisiae; Scc1 (kleisin subunit of cohesin), S. cerevisiae; Tied to the cross-linking experiment by its substitution; also called cohesin (Smc1, Smc3, and Scc1); source: prepared as described in Collier et al., 2020 (pACEbac1i plasmid); purified; copies: + +
T3 sequence (P32908 whole entry, chain 1 of 3): as the sequence (P32908 whole entry E1102C, chain 1 of 3) above, with C1102E counted along it
T3 sequence (P47037 whole entry S72C, chain 2 of 3): as the sequence (P47037 whole entry, chain 2 of 3) above, with S72C counted along it
T3 sequence (Q12158 whole entry, chain 3 of 3): as the sequence (Q12158 whole entry, chain 3 of 3) above

B1: Scc2 133-1493-StrepII T1281C (domain or fragment, S. cerevisiae, UniProt Q04002 133-1493, looked up)
chain: KSEIVSRPEAKHKLESVTSNAGNLSFNDNSSNKKTKTSTGVTMTQANLAEQYLNDLKNILDIVGFDQNSAEIGNIEYWLQLPNKKFVLTTNCLTKLQMTIKNITDNPQLSNSIEITWLLRLLDVMVCNIKFSKSSLKMGLDDSMLRYIALLSTIVLFNIFLLGKNDSNLHRESYIMEPVNFLSDLIESLKILTIEYGSLKIEFDTFQEALELLPKYIRNGPFLDDNVTAKLVYIFSDLLMNNDIEATTNIQFQSFWDNVKRISSDILVSLFGSFDQQRGFIIEELLSHIEKLPTKRIQKKLRKVGNQNIYITDFTFTLMSMLENINCYSFCNQMKDIAPENIDLLKNEYKKQEEFLFNIVEHINDTILERFFKNPSALRYVIDNFVQDLLLLISSPQWPVTEKILSSLLKRLLSVYSPSMQVSANIETICLQLIGNIGSTIFDIKCSTRDHEDNNLIKMINYPETLPHFFKSFEECIAYNETIKCRRSATRFLWNLRLGTILILEEYTKDAKEQIITVDNELKKILEQIKDGGLGPELENREADFSTIKLDYFSILHAFELLNLYDPYLKLILSLLAKDKIKLRSTAIKCLSMLASKDKVILSNPMVKETIHRRLNDSSASVKDAILDLVSINSSYFEFYQQINNNYNDDSIMVRKHVLRINEKMYDETNDIVTKVYVIARILMKIEDEEDNIIDMARLILLNRWILKVHEVLDQPEKLKEISSSVLLVMSRVAIMNEKCSQLFDLFLNFYLLNKEAHSKEAYDKITHVLTILTDFLVQKIVELNSDDTNEKNSIVDKQNFLNLLAKFADSTVSFLTKDHITALYPYMVSDEKSDFHYYILQVFRCTFEKLANFKQKFLYDLETTLLSRLPKMNVREIDEAMPLIWSVATHRHDTARVAKACSSCLSHLHPYINKANNEEAAIVVDGKLQRLIYLSTGFARFCFPKPSNDKIAFLQEGETLYEHITKCLLVLSKDKITHVIRRVAVKNLTKLCGNHPKLFNSRHVLHLLDKEFQSDQLDIKLVILESLYDLFLLEERKSVRNTGVNSTLSSNSILKKKLLKTNRVEFANDGVCSALATRFLDNILQLCLLRDLKNSLVAIRLLKLILKFGYTNPSHSIPTVIALFASTSQYIRHVAYELLEDLFEKYECLVFSSLSRGVTKAIHYSIHTDEKYYYKHDHFLSLLEKLCGTGKKNGPKFFKVLKRIMQSYLDDITDLTSTNSSVQKSIFVLCTNISNITFVSQYDLVSLLKTIDLTTDRLKEVIMDEIGDNVSSLSVSEEKLSGIILIQLSLQDLGTYLLHLYGLRDDVLLLDIVEESELKNKQLPAKKPDISKFSAQLENIEQYSSNGKLLTYFRKHVKDT
notes: Scc2, cohesin loader subunit, S. cerevisiae, residues 133-1493; pACEbac1 is a baculovirus transfer vector, so insect cells are surmised; also called Scc2T1281C; source: prepared as described in Collier et al., 2020 (pACEbac1 plasmid); purified
[1]
  binding result: binds

B2: Scc2 133-1493-StrepII D369C (domain or fragment, S. cerevisiae, UniProt Q04002 133-1493, looked up)
chain: B1 chain with D237C, C1149T
notes: Scc2, cohesin loader subunit, S. cerevisiae, residues 133-1493; also called Scc2D369C; source: prepared as described in Collier et al., 2020 (pACEbac1 plasmid); purified
[2]
  binding result: binds

B3: Scc2 133-1493-StrepII E819C (domain or fragment, S. cerevisiae, UniProt Q04002 133-1493, looked up)
chain: B1 chain with E687C, C1149T
notes: Scc2, cohesin loader subunit, S. cerevisiae, residues 133-1493; also called Scc2E819C; source: prepared as described in Collier et al., 2020 (pACEbac1 plasmid); purified
[3]
  binding result: binds
